The text below walks through data of patent publication US20160222058A1.

The assay deals with Angiotensin converting enzyme (ACE). Nature of the assay: cell-based or functional assay.
With “Ovotransferrin hydrolysate (thermolysin then pepsin) of ovotransferrin treated by sonication prior to hydrolysis”, the IC50 (µg/ml), in vitro ACE inhibitory activity amounted to 9.2 µg/mL.

In turn, “Ovotransferrin hydrolysate (thermolysin then pepsin) of ovotransferrin treated with beta-mercaptoethanol prior to hydrolysis” yielded an IC50 (µg/ml), in vitro ACE inhibitory activity of 45.6 µg/mL.

Substance “Ovotransferrin hydrolysate (thermolysin then pepsin) of ovotransferrin treated with dithiothreitol prior to hydrolysis” returned an IC50 (µg/ml), in vitro ACE inhibitory activity of 10.7 µg/mL.

In turn, “Ovotransferrin hydrolysate prepared by pepsin, without reducing agent treatment” displayed an IC50 (µg/ml), in vitro ACE inhibitory activity of 320 µg/mL.

In turn, “Ovotransferrin hydrolysate prepared by thermolysin and pepsin in combination, without sonication or reducing agent treatment” had an IC50 (µg/ml), in vitro ACE inhibitory activity of 198 µg/mL.

On to “Ovotransferrin hydrolysate prepared by thermolysin, without reducing agent treatment”, for which the IC50 (µg/ml), in vitro ACE inhibitory activity amounted to 215 µg/mL.
